Experiment [1] has as its target human CD47 (R & D systems) (UniProt Q08722 19-139). Description: flow cytometry, CD47-overexpressing cells; HCAb.
In experiment [2] the target is PD-L1 on PD-L1-expressing APC/CHO-K1 cells (UniProt Q9NZQ7 19-290). Description: flow cytometry, PD-L1 CHO cells; HCAb. A general note: A flow cytometer gives signals particle by particle.
For the next experiment, the target named is Human serum albumin (UniProt P02768 25-609). Description: Octet BLI. In general terms: Biolayer interferometry detects binding as a change in optical thickness at a sensor tip.
For experiment [3], the target named is T1, CD47 natively expressed on tumor cell surface (Jurkat, HL60 cells) (human, UniProt Q08722 19-323). Description: flow cytometry; HL-60 cells.
The target of experiment [4] is T1, CD47 natively expressed on tumor cell …. Description: competitive flow cytometry vs SIRPα-Fc; Jurkat cells.
The next experiment deals with CD47-Fc (R&D systems) (UniProt Q08722 19-139). Description: competitive ELISA vs SIRPα.

Sequence of PD-L1 on PD-L1-expressing APC/CHO-K1 cells (Q9NZQ7 19-290): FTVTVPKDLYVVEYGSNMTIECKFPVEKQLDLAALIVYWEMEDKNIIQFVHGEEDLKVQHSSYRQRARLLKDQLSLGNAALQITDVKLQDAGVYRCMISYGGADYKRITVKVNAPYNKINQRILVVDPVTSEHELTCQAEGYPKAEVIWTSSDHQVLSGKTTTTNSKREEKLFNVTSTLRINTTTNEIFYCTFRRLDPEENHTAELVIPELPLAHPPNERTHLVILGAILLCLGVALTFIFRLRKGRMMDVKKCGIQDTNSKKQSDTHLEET

B1: A09-10 (antibody, V domains shown)
VH: QVQLVESGGGLVQAGGSLRLSCAASGGGRTFSNYALGWFRQAPGKEREFVAAISRSGGNINYADSAKGRFTISRDNFKNTTYLQMSSLKPEDTAVYYCAAHYLLLPSYISTSTNMYNYWGQGTQVTVSS
B1: the EC50 in experiment [1] is 0.36 nM.

B2: PL14 (antibody, V domains shown)
VH: EVQLVESGGGLVQAGGSLRLSCAASGSTSGIYDMGWYRQAPGKLREVVGIITSGGTTNYADFAKGRFTISRDNAKNMMYLQMNSLKPEDTAVYYCNIRTRLIIWGQGTQVTVSS
The molecule B2 came in with an EC50 in experiment [2] of 2.09 nM.

B3: PL16 (antibody, V domains shown)
VH: QVQLVESGGGLVQAGGSLRLSCAFSGGTFLTYSLGWFRQGPGKEREFVASINWSGYMTSYVDSVKGRFTISRDNAKNTVYLQMNSLKPEDTALYYCAAARTAIAAKRSSEFDYWGQGAQVTVSS
Molecule B3 yielded an EC50 in experiment [2] of 1.78 nM.

B4: HS27 (VHH)
VHH: EVQLVESGGGLVQPGGSLRLSCAASGRTFSPYTMGWFRQASGKERESVAATTWTGSRSYYGESVKGRFTISRDSTKNTMSLQMNSLKPEDTAVYYCAAADGAGLYTNRGQYDYWGQGTQVTVSS
With B4, binding in the experiment with Human serum albumin was characterised by a dissociation constant (Kd) of 1.14 nM.

B5: multi-specific molecule 1511 (CD16F1-L1-hHS10-L1-hA09-10-2-L3-A09-10-L1-hPL16-L3-hPL16) (bispecific antibody)
chain: EVQLVESGGGLVQPGGSLRLSCAVSGSLFSARVMGWYRQAPGKQRELVAAITSGVRTDYADSVKGRFTISRDNAKRAVYLQMNSLKPEDTAVYYCNVNLYNTGNYWGQGTQVTVSSGGGGSGGGSEVQLVESGGGLVQPGGSLRLSCAASGSTDSAYRMGWFRQAPGKEREFVSAINWSDGRTYYADSVKGRFTISRDNSKNTLYLQMNSLRAEDTAVYYCAADPDSRLYYTVPQNYDYWGQGTLVTVSSGGGGSGGGSEVQLVESGGGLVQPGGSLRLSCAASGGGRTFSNYALGWFRQAPGKEREFVAAISRSGGNINYADSVKGRFTISRDNFKNTTYLQMSSLEPEDTAVYYCAAHYLLLPSYISTSTNMYNYWGQGTQVTVSSAAAQVQLVESGGGLVQAGGSLRLSCAASGGGRTFSNYALGWFRQAPGKEREFVAAISRSGGNINYADSVKGRFTISRDNFKNTTYLQMSSLEPEDTAVYYCAAHYLLLPSYISTSTNMYNYWGQGTQVTVSSGGGGSGGGSEVQLVESGGGLVQPGGSLRLSCAASGGTFLTYSMSWVRQAPGKEREFVSSINWSGYMTYYADSVKGRFTISRDNSKNTLYLQMNSLRAEDTAVYYCAAARTAIAAKRSSEFDYWGQGTQVTVSSAAAEVQLVESGGGLVQPGGSLRLSCAASGGTFLTYSMSWVRQAPGKEREFVSSINWSGYMTYYADSVKGRFTISRDNSKNTLYLQMNSLRAEDTAVYYCAAARTAIAAKRSSEFDYWGQGTQVTVSS
Consider B5, for which, in experiment [3], the EC50 turned out to be 26.2 nM. In addition, the half-maximal inhibitory concentration (IC50) is 1.28 nM in experiment [4] and 0.453 nM with CD47-Fc (R&D systems).

B6: multi-specific molecule 3321 (CD16F1-L1-hHS10-L1-hA09-10-3-L3-hA09-10-4-L1-H33-14-L3-H33-14) (other)
chain: EVQLVESGGGLVQPGGSLRLSCAVSGSLFSARVMGWYRQAPGKQRELVAAITSGVRTDYADSVKGRFTISRDNAKRAVYLQMNSLKPEDTAVYYCNVNLYNTGNYWGQGTQVTVSSGGGGSGGGSEVQLVESGGGLVQPGGSLRLSCAASGSTDSAYRMGWFRQAPGKEREFVSAINWSDGRTYYADSVKGRFTISRDNSKNTLYLQMNSLRAEDTAVYYCAADPDSRLYYTVPQNYDYWGQGTLVTVSSGGGGSGGGSEVQLVESGGGLVQPGGSLRLSCAASGGGRTFSNYALGWFRQAPGKEREFVAAISRSGGNINYADSVKGRFTISRDNFKNTVYLQMSSLRAEDTAVYYCAAHYLLLPSYISTSTNMYNYWGQGTQVTVSSAAAQVQLVESGGGLVQPGGSLRLSCAASGGGRTFSNYALGWFRQAPGKEREFVAAISRSGGNINYADSVKGRFTISRDNAKNTVYLQMSSLRAEDTAVYYCAAHYLLLPSYISTSTNMYNYWGQGTQVTVSSGGGGSGGGSQVQLVESGGGLVQPGGSLRLSCAASGRTSLILAMAWWRQAPGKEREFAGRIWWNNDMTRYSDSVKGRFTISRDNAKNTVYLQMSSLRAEDTAVYYCEADLIGGSRGWGQGTLVTVSSAAAQVQLVESGGGLVQPGGSLRLSCAASGRTSLILAMAWWRQAPGKEREFAGRIWWNNDMTRYSDSVKGRFTISRDNAKNTVYLQMSSLRAEDTAVYYCEADLIGGSRGWGQGTLVTVSS
As for B6, it took 0.182 nM to reach a half-maximal effect in experiment [3] (EC50). Besides, the IC50 was found to be 0.935 nM in experiment [4] and 0.267 nM in the experiment with CD47-Fc (R&D systems).

The term EC50 denotes the concentration at which the effect is half-maximal. What is called Kd is a measure of binding affinity in units of concentration. Read a low Kd as higher affinity. As a reminder, the IC50 is the concentration that gives 50% inhibition. Read a low IC50 as higher potency.

The values above are taken from US12723105 (dated 2026).
